Experimental data as given in IntAct's records for PubMed 10198631.

B1: Bcl-2-like protein 11 (Mus musculus), O54918-2 (parent)
chain: MAKQPSDVSSECDREGGQLQPAERPPQLRPGAPTSLQTEPQDRSPAPMSCDKSTQTPSPPCQAFNHYLSAMASIRQSQEEPEDLRPEIRIAQELRRIGDEFNETYTRRVFANDYREAEDHPQMVILQLLRFIFRLVWRRH

Variants of: B1
Details: with dlrb1_human DYNLRB1, Q9NP97
dlrb1_human DYNLRB1, Q9NP97, sequence (Q9NP97 whole entry): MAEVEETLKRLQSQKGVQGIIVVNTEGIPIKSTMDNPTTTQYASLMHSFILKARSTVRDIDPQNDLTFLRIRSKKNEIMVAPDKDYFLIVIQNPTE

Effect of a mutation on the interaction, decreasing interaction:
MAKQPSDVSSECDREGGQLQPAERPPQLRPGAPTSLQTEPQDRSPAPMSCDKSAQTPSPPCQAFNHYLSAMASIRQSQEEPEDLRPEIRIAQELRRIGDEFNETYTRRVFANDYREAEDHPQMVILQLLRFIFRLVWRRH
MAKQPSDVSSECDREGGQLQPAERPPQLRPGAPTSLQTEPQDRSPAPMSCDKSAQTPSPPCQAFSHYLSAMASIRQSQEEPEDLRPEIRIAQELRRIGDEFNETYTRRVFANDYREAEDHPQMVILQLLRFIFRLVWRRH
MAKQPSDVSSECDREGGQLQPAERPPQLRPGAPTSLQTEPQDRSPAPMSCDKPTQTPSPPCQAFNHYLSAMASIRQSQEEPEDLRPEIRIAQELRRIGDEFNETYTRRVFANDYREAEDHPQMVILQLLRFIFRLVWRRH
